From patent US20220031842A1 (JIANGSU HENGRUI MEDICINE, published 2022) come the findings set out here.

Assay [1] concerns the target T1, Fusion protein of LAG-3 extracellular region and mIgG2a Fc (human).
T1 construct: Limits of the signal peptide are marked only by lost underlining; also called LAG-3-mFc; LAG-3-mFc fusion protein
T1 chain: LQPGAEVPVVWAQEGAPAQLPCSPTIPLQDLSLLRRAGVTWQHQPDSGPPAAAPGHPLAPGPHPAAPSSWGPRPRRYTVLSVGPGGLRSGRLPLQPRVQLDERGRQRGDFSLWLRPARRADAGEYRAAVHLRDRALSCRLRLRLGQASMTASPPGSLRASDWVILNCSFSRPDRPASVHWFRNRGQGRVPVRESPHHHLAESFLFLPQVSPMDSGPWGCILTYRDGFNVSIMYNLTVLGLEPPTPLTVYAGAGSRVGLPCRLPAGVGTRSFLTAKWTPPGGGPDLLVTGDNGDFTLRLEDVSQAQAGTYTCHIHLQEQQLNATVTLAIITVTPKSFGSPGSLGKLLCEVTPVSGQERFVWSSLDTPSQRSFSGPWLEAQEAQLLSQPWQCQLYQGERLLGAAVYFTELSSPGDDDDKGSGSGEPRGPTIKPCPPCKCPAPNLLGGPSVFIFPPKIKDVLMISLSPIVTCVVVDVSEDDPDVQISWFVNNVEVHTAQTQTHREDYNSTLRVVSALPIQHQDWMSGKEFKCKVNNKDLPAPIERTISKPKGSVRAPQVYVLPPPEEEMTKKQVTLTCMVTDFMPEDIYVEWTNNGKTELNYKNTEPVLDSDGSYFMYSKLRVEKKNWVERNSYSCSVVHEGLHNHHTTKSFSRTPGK
As to the kind of experiment: ELISA, LAG-3-mFc captured by anti-mouse Fc on plate (which fusion: inferred). An excerpt:
The binding ability of anti-LAG-3 antibody to human LAG-3 protein was detected by ELISA assay. LAG-3 fusion protein with Fc or mFc tag was immobilized into 96-well microtiter plate by binding to anti-Fc or anti-mFc antibody coated on the microtiter plate, the strength of the signal after the addition of the antibody was used to determine the binding activity of the antibody to LAG-3, the specific experimental method is as follows.
The goat anti-human Fc antibody (Jackson Immuno Research, Cat No. 109-005-008) or goat anti-mouse Fc antibody (Sigma, Cat No. M3534-1ML) was diluted to a concentration of 2 μg/ml with PBS buffer at pH 7.4 (Sigma, Cat No. P4417-100TAB), and added to a 96-well plate at a volume of 50 μl/well and then, the plate was incubated in the incubator at 37° C. for 2 hours. After discarding the liquid, the plates were blocked with 200 μl/well of blocking solution containing 5% skim milk (Bright Dairy, skim milk powder) in PBS, and incubated in the incubator at 37° C. for 2.5 hours or overnight at 4° C. (16-18 hours). After blocking, the blocking solution was discarded and the plate was washed 5 times with PBST buffer (PH7.4 PBS containing 0.05% tween-20). LAG-3-Fc fusion protein (SEQ ID NO:3, produced in-house) or LAG-3-mFc fusion protein (SEQ ID NO: 4, produced in-house) was diluted with sample diluent (PH7.4 PBS containing 1% BSA) to 1 μg/ml and was added to each well, 50 μl/well. Then the plate was incubated in the incubator at 37° C. for 1 h or overnight at 4° C. After incubation, the reaction solution in the plate was discarded, and the plate was washed with PBST for 6 times, and then was added with 50 μl/well of various concentrations of antibodies to be tested (hybridoma purified antibody or humanized antibody) which have been diluted with sample diluent, and the plate was incubated at 37° C. for 1 h. The plates was washed 5 times with PBST after incubation, and was added with 100 μl/well of goat anti-mouse (Jackson Immuno Research, Cat No. 115-035-003) or goat anti-human secondary antibody (Jackson Immuno Research, Cat No. 109-035-003) labeled with HRP, diluted in sample diluent, and the plate was incubated at 37° C. for 1 h.
For orientation: In an ELISA, binding on a coated surface is turned into a signal by an enzyme label.

Assay [2] has as its target T2, Fusion protein of LAG-3 extracellular region and hIgG1 Fc (human).
T2 construct: Limits of the signal peptide are marked only by lost underlining; also called LAG-3-Fc; LAG-3-Fc fusion protein
As to the kind of experiment: competition: biotin-LAG-3-Fc binding to fixed Daudi cells, antibody titrated. The protocol:
Daudi cells (human leukemia cells, purchased from the cell bank in Chinese Academy of Sciences) were seeded in 96-well plate with a density of 3×10⁵/well. After centrifugation at 1000 rpm, the supernatant was discarded and then the plate was fixed with 4% PFA for 30 min at room temperature. The plate was washed 4 times with PBS after discarding the fixed solution, and the plate was blocked with 200 μl/well of blocking solution containing 5% skim milk (Bright Dairy, skim milk powder) diluted in PBS, and incubated at 37° C. for 2.5 hours. After blocking, the blocking solution was discarded and the plate was washed 5 times with PBST buffer (pH7.4 PBS containing 0.05% tween-20), added with 50 μl/well mixture of biotin-labeled (Biotin labeling kit, Dojindo Chemical, Cat No. LK03) LAG-3-Fc fusion protein (produced in-house, SEQ ID NO: 3) and gradient concentrations of the antibody to be tested, wherein the biotin-labeled LAG-3-Fc fusion protein has been diluted with sample diluent (PH7.4 PBS containing 1% BSA) at a final concentration of 0.4 μg/ml, and pre-mixed for an hour, then the plate was incubated at 37° C. for 1 h. The reaction solution was discarded and the plate was washed 5 times with PBST after incubation, 50 μl/well of HRP-labeled Streptavidin (Sigma, Cat No. 52438) diluted with sample diluent was added, and the plate was incubated at 37° C. for 1 h. After washing the plate 5 times with PBST, 50 μl/well of TMB chromogenic substrate (KPL, Cat No. 52-00-03) was added to each well, and incubated at room temperature for 5-15 min, the reaction was stopped by the addition of 50 μl 1M H₂SO₄ to each well. The OD value at a wavelength of 450 nm was read on NOVOStar microplate reader, and then the activity of the LAG-3 antibody in blocking the binding of the antigen to Daudi cells was calculated.

In general, EC50 refers to the concentration that produces a half-maximal response. Read a low EC50 as higher potency in that assay. Usually IC50 stands for the midpoint of a concentration-inhibition curve.

T2 sequence (chain, as listed by the source limits assumed): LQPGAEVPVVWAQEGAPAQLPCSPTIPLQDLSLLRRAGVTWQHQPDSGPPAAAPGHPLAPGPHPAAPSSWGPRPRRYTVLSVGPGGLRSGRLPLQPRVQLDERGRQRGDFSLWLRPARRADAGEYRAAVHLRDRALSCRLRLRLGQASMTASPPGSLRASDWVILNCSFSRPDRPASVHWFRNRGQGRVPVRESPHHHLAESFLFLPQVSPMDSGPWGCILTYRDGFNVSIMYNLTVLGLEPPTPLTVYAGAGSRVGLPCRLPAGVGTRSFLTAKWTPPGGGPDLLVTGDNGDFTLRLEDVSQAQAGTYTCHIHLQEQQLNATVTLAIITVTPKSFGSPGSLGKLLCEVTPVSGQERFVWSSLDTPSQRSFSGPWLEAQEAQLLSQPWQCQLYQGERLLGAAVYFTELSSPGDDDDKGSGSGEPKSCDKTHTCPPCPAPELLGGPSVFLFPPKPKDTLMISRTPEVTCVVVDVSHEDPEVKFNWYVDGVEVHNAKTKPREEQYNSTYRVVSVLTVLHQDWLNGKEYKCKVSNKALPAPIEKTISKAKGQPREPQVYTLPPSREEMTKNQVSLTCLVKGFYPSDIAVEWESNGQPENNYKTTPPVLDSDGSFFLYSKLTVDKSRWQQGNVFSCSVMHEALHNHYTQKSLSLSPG

B1: Hu229-008 (antibody, human IgG4 S228P, kappa, V domains shown)
VH: QVQLVQSGSELKKPGASVKVSCKASGYTFTTSGMSWVRQAPGQGLKWMGWINTYSGVPTYADDFKGRFVFSLDTSVSTAYLQISSLKAEDTAVYYCARDNYDARDVYYYAMDYWGQGTTVTVSS
VL: DIQMTQSPSSLSASVGDRVTITCRASENIYSNLAWYQQKPGKAPKLLIYAATNLADGVPSRFSGSGSGTDFTLTISSLQPEDFATYYCQHFWITPWTFGGGTKVEIKR
notes: Humanized mAb229
As for B1, the half-maximal effective concentration (EC50) in assay [1] amounted to 0.506 nM.

B2: Hu229-012 (antibody, human IgG4 S228P, kappa, V domains shown)
VH: QVQLVQSGSELKKPGASVKVSCKASGYTFTTSGMSWVKQAPGQGLKWMGWINTYSGVPTYADDFKGRFVFSLDTSVSTAYLQISSLKAEDTATYYCARDNYDARDVYYYAMDYWGQGTTVTVSS
VL: DIQMTQSPSSLSASVGDRVTITCRASENIYSNLAWYQQKPGKAPKLLIYAATNLADGVPSRFSGSGSGTDFTLTISSLQPEDFATYYCQHFWITPWTFGGGTKVEIKR
notes: Humanized mAb229
In the case of B2, a half-maximal effect in assay [1] (EC50) was put at 0.268 nM. Against the preceding molecule, the EC50 is about 1.9-fold lower.

B3: Hu303-011 (antibody, human IgG4 S228P, kappa, V domains shown)
VH: QVQLVQSGAEVKKPGASVKVSCKASGYTFTDYYMNWVRQAPGQRLEWMGVINPYNGDTAYNQKFKGRVTITVDKSASTAYMELSSLRSEDTAVYYCTRDDGYYDYYFDVWGQGTTVTVSS
VL: DIQMTQSPSSLSASVGDRVTITCRASQDIGSRLNWYQQKPGKAPKRLIYATSTLDSGVPKRFSGSRSGTDFTLTISSLQPEDFATYYCLQLASSPPTFGGGTKVEIKR
notes: Humanized mAb303
For B3, the half-maximal effective concentration (EC50) in assay [1] came out at 0.314 nM. This molecule yielded an IC50 in assay [2] of 0.728 nM.

B4: Hu303-015 (antibody, human IgG4 S228P, kappa, V domains shown)
VH: QVQLVQSGAEVKKPGASVKVSCKASGYTLTDYYMNWVRQAPGQRLEWMGVINPYNGDTAYNQKFKGRVTITVDKSASTAYMELSSLRSEDTAVYYCTRDDGYYDYYFDVWGQGTTVTVSS
VL: DIQMTQSPSSLSASVGDRVTITCRASQDIGSRLNWYQQKPGKAPKRLIYATSTLDSGVPSRFSGSRSGTDFTLTISSLQPEDFATYYCLQLASSPPTFGGGTKVEIKR
notes: Humanized mAb303
In the case of B4, the midpoint of the response in assay [1], the EC50, lay at 0.172 nM. Besides, the concentration for half-maximal inhibition (IC50) in assay [2] is 0.398 nM.

B5: Hu303-007 (antibody, human IgG4 S228P, kappa, V domains shown)
VH: QVQLVQSGAEVKKPGASVKVSCKASGYTFTDYYMNWVRQAPGQRLEWMGVINPYNGDTAYNQKFKGRVTITRDTSASTAYMELSSLRSEDTAVYYCARDDGYYDYYFDVWGQGTTVTVSS
VL: DIQMTQSPSSLSASVGDRVTITCRASQDIGSRLNWLQQKPGKAFKRLIYATSTLDSGVPKRFSGSRSGTDFTLTISSLQPEDFATYYCLQLASSPPTFGGGTKVEIKR
notes: Humanized mAb303
In assay [1], B5 came in with an EC50 of 0.135 nM. The molecule also displayed an IC50 in assay [2] of 0.343 nM.

B6: Hu303-008 (antibody, human IgG4 S228P, kappa, V domains shown)
VH: QVQLVQSGAEVKKPGASVKVSCKASGYTFTDYYMNWVRQAPGQRLEWMGVINPYNGDTAYNQKFKGRVTITRDTSASTAYMELSSLRSEDTAVYYCARDDGYYDYYFDVWGQGTTVTVSS
VL: DIQMTQSPSSLSASVGDRVTLTCRASQDIGSRLNWLQQKPGGAFKRLIYATSTLDSGVPKRFSGSRSGTDFTLTISSLQPEDFADYYCLQLASSPPTFGGGTKVEIKR
notes: Humanized mAb303
For B6, in assay [1], the response was half-maximal at 0.14 nM (EC50). The same molecule gave an IC50 in assay [2] of 0.346 nM.

B7: Hu303-012 (antibody, human IgG4 S228P, kappa, V domains shown)
VH: QVQLVQSGAEVKKPGASVKVSCKASGYTFTDYYMNWVRQAPGQRLEWMGVINPYNGDTAYNQKFKGRVTITVDKSASTAYMELSSLRSEDTAVYYCTRDDGYYDYYFDVWGQGTTVTVSS
VL: DIQMTQSPSSLSASVGDRVTITCRASQDIGSRLNWLQQKPGKAFKRLIYATSTLDSGVPKRFSGSRSGTDFTLTISSLQPEDFATYYCLQLASSPPTFGGGTKVEIKR
notes: Humanized mAb303
As for B7, in assay [1], a half-maximal effect (EC50) was put at 0.164 nM. Moreover, in assay [2], the IC50 was found to be 0.361 nM.

B8: Hu303-013 (antibody, human IgG4 S228P, kappa, V domains shown)
VH: QVQLVQSGAEVKKPGASVKVSCKASGYTFTDYYMNWVRQAPGQRLEWMGVINPYNGDTAYNQKFKGRVTITVDKSASTAYMELSSLRSEDTAVYYCTRDDGYYDYYFDVWGQGTTVTVSS
VL: DIQMTQSPSSLSASVGDRVTLTCRASQDIGSRLNWLQQKPGGAFKRLIYATSTLDSGVPKRFSGSRSGTDFTLTISSLQPEDFADYYCLQLASSPPTFGGGTKVEIKR
notes: Humanized mAb303
For the molecule B8, in assay [1], the EC50 is 0.166 nM. Moreover, the concentration for half-maximal inhibition (IC50) in assay [2] is 0.347 nM.
